Experimental data from paper PMC3660260.

Experiments:
[1] = biological target: HCV envelope glycoprotein E2 (in lysate of HCV-infected Huh7.5 cells) (hepatitis C virus (strain not stated)) (UniProt Q99IB8)
[2] = biological target: HCV envelope glycoprotein E2 (in lysate of HCV-infected Huh7.5 cells) (hepatitis C virus (strain not stated)) (UniProt Q99IB8); remark: listed apart in the source

Sequence of UniProt Q99IB8 (Q99IB8 384-750): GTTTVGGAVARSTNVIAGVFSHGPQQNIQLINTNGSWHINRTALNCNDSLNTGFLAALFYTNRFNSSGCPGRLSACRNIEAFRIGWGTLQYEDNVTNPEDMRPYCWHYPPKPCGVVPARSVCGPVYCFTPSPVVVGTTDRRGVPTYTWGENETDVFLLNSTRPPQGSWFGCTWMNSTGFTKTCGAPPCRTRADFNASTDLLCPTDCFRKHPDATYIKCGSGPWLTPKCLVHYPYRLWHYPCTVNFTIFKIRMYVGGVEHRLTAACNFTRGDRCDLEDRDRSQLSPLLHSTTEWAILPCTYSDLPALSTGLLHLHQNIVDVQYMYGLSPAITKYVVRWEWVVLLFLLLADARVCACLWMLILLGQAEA

Substance	EC50 for inhibition of replication of JFH-1 (genotype 2a) HCVcc in Huh7.5.1 cells [1] [nM]	EC50 for inhibition of replication of the J6/JFH-1 HCVcc chimera (structural genes of genotype 2a J6) in Huh7.5.1 cells [1] [nM]	EC50 for inhibition of replication of the TH/JFH-1 HCVcc chimera (structural genes of genotype 1b TH) in Huh7.5.1 cells [1] [nM]	EC50 for inhibition of HCV JFH-1 (genotype 2a) in the HCVcc full-replication assay in Huh7.5.1 cells (HCV core protein in supernatant) [2] [nM]
griffithsin (from UniProt P84801 1-121) (natural protein)	0.3	14	2.2	0.4
scytovirin (from UniProt P86041 1-95) (natural protein)	3.2	50.8	57.5	16.9
